How the values were obtained:
Format in all cases: in vivo
[1] = test system: non-insulin dependent diabetic mellitus (NIDDM) male mice C57BLK/J-m+/Lepr db; assay: Serum glucose after oral rhLF for 15 days in diabetic db/db mice; conditions: Day 15 Post (90 min after dosing), fasted 3 h, relative to placebo
Procedure: (§1) RhLF (650 mg/kg and 65 mg/kg) and vehicle/placebo (rhLF diluent buffer pH 7.0) were administered orally once daily for 15 consecutive days to groups of 4 non-insulin dependent diabetic mellitus (NIDDM) male mice. […] All animals were allowed free access to normal laboratory chow and water. Blood samples were withdrawn from the orbital sinus immediately before dosing on day 1 (Day 1 Pre) and 90 minutes after the first administration on day 15 (Day 15 Post). The animals were fasted for 3 hours prior to sampling. Serum glucose levels were determined by enzymatic method (mutaratase-GOD). Four animals per cohort were studied. Reduction and p-value (1-tailed) were determined relative to placebo.

[2] = test system: non-insulin dependent diabetic mellitus (NIDDM) male mice (C57BLKS/J-m+/+Lepr db); assay: Serum glucose after topical rhLF gel for 20 days in diabetic mice; conditions: RhLF gel (1%) topically, 0.2 mg per mouse once per day for 20 days onto a 12 mm punch excision; day 20; with respect to pre-treatment values
Procedure: Two groups of 6 non-insulin dependent diabetic mellitus (NIDDM) male mice (C57BLKS/J-m+/+Lepr db) weighing 50+grams and 9-10 weeks old were given either rhLF vehicle (Placebo), or RhLF gel (1%) topically (0.2 mg per mouse/once per day) for 20 days applied directly onto a 12 mm punch excision. Blood samples were obtained from the orbital sinus on day 0 and day 20 at 90 minutes. The animals were fasted for 3 hours prior to sampling. Serum glucose levels were determined by enzymatic method (mutaratase-GOD). Percentage differences were determined with respect to pre-treatment values and analyzed statistically with the unpaired Student' t test. Differences were considered significant at p values of less than 0.05 (FIG. 4).

[3] = test system: non-insulin dependent diabetic mellitus (NIDDM) male mice (C57BLK/J-m+/Lepr db); assay: Serum insulin (ELISA) after oral rhLF for 15 days in diabetic mice; conditions: 650 and 65 mg/kg orally once daily for 15 days, Day 15 Post, fasted 3 h
Procedure: as §1, with “(650” for “(650 mg/kg”, “last” for “first”, “sampling.” for “sampling. Serum glucose levels were determined by enzymatic method (mutaratase-GOD). Four animals per cohort were studied. Reduction and p-value (1-tailed) were determined relative to placebo.”

[4] = test system: non-insulin dependent diabetic mellitus (NIDDM) male mice (C57BLKS/J-m+/+Lepr db); assay: Serum glucose and total body weight after oral rhLF for 20 days in diabetic mice; conditions: 65 mg/kg orally via gavage once per day for 20 days
Procedure: Five groups of 6 non-insulin dependent diabetic mellitus (NIDDM) male mice (C57BLKS/J-m+/+Lepr db) weighing 50±grams and 9-10 weeks old were given either rhLF vehicle (Placebo), or RhLF (65 mg/kg) orally via gavage for 20 days (once per day) in a volume of 0.13 ml. Blood samples were obtained from the orbital sinus on day 0 and day 20 at 90 minutes following the last administration. Animals were fasted for 3 hours prior to sampling. Serum glucose levels were determined by enzymatic method (mutaratase-GOD). Total body weight measurements were determined on days 0 and 20. Percentage differences were determined with respect to pre-treatment values and analyzed statistically with the unpaired Student' t test. Differences were considered significant at p values of less than 0.05.

B1: RhLF: Recombinant human lactoferrin, a single chain metal binding glycoprotein; given orally in diluent buffer or topically as 1% gel (protein, UniProt P02788 20-710, looked up)
Lactotransferrin: GRRRSVQWCAVSQPEATKCFQWQRNMRKVRGPPVSCIKRDSPIQCIQAIAENRADAVTLDGGFIYEAGLAPYKLRPVAAEVYGTERQPRTHYYAVAVVKKGGSFQLNELQGLKSCHTGLRRTAGWNVPIGTLRPFLNWTGPPEPIEAAVARFFSASCVPGADKGQFPNLCRLCAGTGENKCAFSSQEPYFSYSGAFKCLRDGAGDVAFIRESTVFEDLSDEAERDEYELLCPDNTRKPVDKFKDCHLARVPSHAVVARSVNGKEDAIWNLLRQAQEKFGKDKSPKFQLFGSPSGQKDLLFKDSAIGFSRVPPRIDSGLYLGSGYFTAIQNLRKSEEEVAARRARVVWCAVGEQELRKCNQWSGLSEGSVTCSSASTTEDCIALVLKGEADAMSLDGGYVYTAGKCGLVPVLAENYKSQQSSDPDPNCVDRPVEGYLAVAVVRRSDTSLTWNSVKGKKSCHTAVDRTAGWNIPMGLLFNQTGSCKFDEYFSQSCAPGSDPRSNLCALCIGDEQGENKCVPNSNERYYGYTGAFRCLAENAGDVAFVKDVTVLQNTDGNNNEAWAKDLKLADFALLCLDGKRKPVTEARSCHLAMAPNHAVVSRMDKVERLKQVLLHQQAKFGRNGSDCPDKFCLFQSETKNLLFNDNTECLARLHGKTTYEKYLGPQYVAGITNLKKCSTSPLLEACEFLRK
- reduction in serum glucose ([1]; 65 mg/kg orally once daily for 15 days): 14.6%
- reduction in serum glucose ([1]; 650 mg/kg orally once daily for 15 days): 19.0%
- reduction of serum glucose [2]: 10.9%
- serum insulin levels [3]: increase
- reduction in serum glucose ([4]; day 20, 90 min after last administration, with respect to pre-treatment values): 13.8%
- reduction in body weight ([4]; day 20 vs day 0): 7.7%

Source: patent publication US7262279B2, “Lactoferrin in the treatment of diabetes mellitus” (Agennix, Inc., priority 2003, dated 2007)
